The record followed here is US20140030270A1 (Amgen, published 2014).

Assay [1] addresses human PCSK9 (wild-type) (human, UniProt Q8NBP7 31-692, biotinylated in the ELISA formats (sites not given); untagged and unlabelled in Biacore/KinExA). In words: cell-based or functional assay.
For assay [2], the target named is human PCSK9 D374Y mutant (human, UniProt Q8NBP7 31-692, biotinylated in the LDLR binding ELISAs (sites not given)). In words: cell-based or functional assay.

B1: 11F1 anti-PCSK9 antibody (antibody, V domains shown)
VH: EVQLVESGGGLVQPGGSLRLSCAASGFTFSNYWMSWVRQAPGKGLEWVASIKQDGSEKYYVDSVKGRFAISRDNAKNSLFLQMNSLRAEDTAVYYCARDLVLMVYDIDYYYYGMDVWGQGTTVTVSS
VL: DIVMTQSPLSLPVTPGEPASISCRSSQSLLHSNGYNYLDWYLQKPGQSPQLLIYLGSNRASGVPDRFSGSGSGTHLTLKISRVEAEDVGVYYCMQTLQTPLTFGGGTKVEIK
With B1, the “EC50, block of WT PCSK9-mediated decrease in LDL uptake in HepG2 cells (BODIPY-LDL)” value in assay [1] turned out to be 124 nM. Besides, the “EC50, block of D374Y PCSK9-mediated decrease of LDL uptake in HepG2 cells (BODIPY-LDL)” value in assay [2] worked out at 35.3 nM.
